Reference: patent US20160355564

System: recombinant proinsulin protein

Substance: tissue transglutaminase
- substrate of the deamidase in test tube: recombinant proinsulin protein was shown to be a substrate for TG2
